Test results reported in patent US20220281973A1 (TRUEBINDING, published 2022).

T1: hLRIG1 Peptide 70 (human)
T1 construct: 20 amino acid peptide of the LRIG1 peptide library
T1 peptide: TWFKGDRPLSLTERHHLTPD

T2: hLRIG1 Peptide 71 (human)
T2 construct: 20 amino acid peptide of the LRIG1 peptide library
T2 peptide: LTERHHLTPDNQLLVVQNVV

T3: human LRIG1 extracellular domain fused to a linker-spaced 6-histidine tag, LRIG1-ECD-His (R&D systems, … (human, UniProt Q96JA1 35-794))
T3 construct: Bought protein; also called human LRIG1-His; hLRIG1-His; not shown: linker-spaced 6-histidine tag
T3 sequence: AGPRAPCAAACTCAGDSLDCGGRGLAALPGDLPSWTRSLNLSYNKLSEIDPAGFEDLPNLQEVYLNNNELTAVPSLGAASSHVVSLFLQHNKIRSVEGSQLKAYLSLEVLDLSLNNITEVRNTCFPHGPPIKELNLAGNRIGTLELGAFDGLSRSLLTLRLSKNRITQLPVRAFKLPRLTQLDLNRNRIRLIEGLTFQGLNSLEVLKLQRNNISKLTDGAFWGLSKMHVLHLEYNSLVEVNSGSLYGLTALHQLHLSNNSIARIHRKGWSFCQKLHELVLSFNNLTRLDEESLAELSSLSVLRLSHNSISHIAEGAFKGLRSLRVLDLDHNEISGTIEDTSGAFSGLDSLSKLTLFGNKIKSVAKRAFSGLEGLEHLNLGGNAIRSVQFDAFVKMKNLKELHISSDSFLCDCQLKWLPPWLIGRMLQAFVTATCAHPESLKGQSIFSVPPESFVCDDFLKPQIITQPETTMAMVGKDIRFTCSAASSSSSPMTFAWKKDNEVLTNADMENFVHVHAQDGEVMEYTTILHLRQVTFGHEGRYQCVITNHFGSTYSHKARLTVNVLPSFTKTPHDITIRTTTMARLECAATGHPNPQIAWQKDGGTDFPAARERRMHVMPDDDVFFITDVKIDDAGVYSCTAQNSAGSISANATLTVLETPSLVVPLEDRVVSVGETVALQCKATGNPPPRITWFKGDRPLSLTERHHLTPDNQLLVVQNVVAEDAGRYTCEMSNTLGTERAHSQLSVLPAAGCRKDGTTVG


Biological target: T1, hLRIG1 Peptide 70
Test: peptide ELISA of Example 2, as told in Example 3
Procedure: (§1) To identify the epitopes to which LRIG1 antibodies with and without VISTA-LRIG1 blocking activity bound, a library of 20 amino acid peptides representing portions of LRIG1 was produced, and the ability to bind LRIG1 antibodies was evaluated by ELISA. At least 2 ug/ml of hLRIG1 peptide in 50 μl of PBS or 0.1 ug/ml of full-length human LRIG1 protein (R&D Systems) in 100 μl of PBS was added to the wells of a 96-well ELISA plate (Thermo Fisher, 44-2404-21). After incubating the plate at 4° C. overnight, the plate was washed three times with 300 μl of PBST per well. The plate was then blocked for an hour with 200 μl of 2% BSA in PBST per well at room temperature with gentle rocking. Thereafter, the 2% BSA in PBST was removed and 100 μl of 0.1 ug/ml of antibody in 2% BSA in PBST was added to the wells. The plate was incubated for an hour at room temperature with gentle rocking and then washed three times with 300 μl of PBST per well. Afterwards, 100 μl of anti-mouse IgG-HRP (1:4000) (Jackson ImmunoResearch) or anti-rat IgG HRP (1:4000) (Jackson ImmunoResearch) was added to the wells. The plate was incubated for 30 minutes at room temperature with gentle rocking and then washed three times with 300 μl of PBST per well. 100 μl of TMB substrate (Fisher Scientific, 34029) was then added to each well. The reaction was stopped with 50 μl of 1 M HCl (VWR) per well. The plate was read using a plate reader (Molecular Devices) at absorbance of 450 nm, and signal greater than 0.25 OD was considered evidence of peptide binding.

binding result | Binder
binds | 802.4H12.2A9 (antibody, V domains shown, Mouse hybridoma monoclonal) VH: EVQLVESGGGLVKPGGSLKLSCAASGFTFSSYTMSWVRQTPEKTLEWVATISDGGRYTYYPDNVKGRFTISRDNANNNLYLQMSHLKSEDTAMYYCARGWLLRNFDFWGQGTTLTVSS VL: DVVMTQTPLSLPVSLGDQASISCRSSQSIVHSNGNTYLEWYLQKPGQSPKLLIYKVSNRFSGVPDRFSGSGSGTDFTLKISRVEAEDLGVYYCFQGSHVPLTFGAGTKLELK

Biological target: T2, hLRIG1 Peptide 71
Test: peptide ELISA of Example 2, as told in Example 3
Procedure: as §1

binding result | Binder
binds | 802.4H12.2A9 (antibody, V domains shown, Mouse hybridoma monoclonal) VH: EVQLVESGGGLVKPGGSLKLSCAASGFTFSSYTMSWVRQTPEKTLEWVATISDGGRYTYYPDNVKGRFTISRDNANNNLYLQMSHLKSEDTAMYYCARGWLLRNFDFWGQGTTLTVSS VL: DVVMTQTPLSLPVSLGDQASISCRSSQSIVHSNGNTYLEWYLQKPGQSPKLLIYKVSNRFSGVPDRFSGSGSGTDFTLKISRVEAEDLGVYYCFQGSHVPLTFGAGTKLELK

Biological target: T3, human LRIG1 extracellular domain fused …
Test: LRIG1 ECD ELISA-positive hybridoma antibodies tested in blocking ELISA on plate-bound LRIG1-ECD-His
Procedure: Positively scoring wells were evaluated for the ability to block association of LRIG1 and VISTA. To identify LRIG1-targeted antibodies with the ability to block the interaction of LRIG1 and VISTA, purified LRIG1 and VISTA proteins were incubated in the presence of LRIG1-immunization hybridoma supernatants described above, or without antibody, and protein interaction was evaluated by ELISA. Purified human LRIG1 extracellular domain fused to a HIS tag (R&D Systems) was diluted in phosphate buffered saline (PBS) (Corning) to a concentration of 3 μg/ml and 100 μl was added to each well of a 96-well ELISA plate (Thermo Fisher, 44-2404-21). After incubating the plate at 4° C. overnight, the plate was washed three times with 300 μl of PBS with 0.05% TWEEN (VWR) (PBST) per well. The plate was then blocked for an hour with 200 μl of 2% bovine serum albumin (BSA) (Sigma) in PBST per well at room temperature with gentle rocking. Thereafter, the 2% BSA in PBST was removed and 50 μl of hybridoma supernatant diluted to 3.3 ug/mL was added to the wells. The plate was incubated for 10 minutes at room temperature with gentle rocking. Afterwards, 100 ul of 50 nM oligomerized VISTA in 100 ul PBS buffer was added per well. VISTA oligomerization was performed by Klickmer formation. Briefly, 5 nM Klickmer (Immudex) was incubated with 200 nM hVISTA-Fc-Avi-Biotin in PBS and incubated for one hour. The plate was incubated for an hour at room temperature with gentle rocking. Thereafter, the plate was washed three times with 300 μl of PBST per well, and 100 μl of avidin-HRP (1:1000) (Jackson ImmunoResearch) was then added to each well and the plate was incubated at room temperature for 30 minutes with gentle rocking. Thereafter, the plate was washed three times with 300 μl of PBST per well. 100 μl of TMB substrate (Fisher Scientific, 34029) was then added to each well. The reaction was stopped with 50 μl of 1 M HCl (VWR) per well. The plate was read using a spectrophotometer (Molecular Devices) at absorbance of 450 nm. Percent blockade of LRIG1-VISTA interaction was calculated as the fraction of signal obtained in each experimental samples of the no antibody sample less background signal.

Binder | binding result
802.4C12.3C5 (antibody, V domains shown, Mouse hybridoma monoclonal) VH: QVQLQQSGGELMKPGASVKLSCKATGYTFTGYWIEWVKQRPGHGLEWIGEILPGSGRTYYNEKFKGKATFTADTSSNTAYMQLSSLTTEDSAIYYCAREIYDGHYEAWYAYWGQGTLVTVSA VL: DVVMTQTPLSLSVTIGQPASISCKSSQSLLYSDGKTYLNWLQQRPGQSPKRLMYQVSKLDPGIPDRFSGSGSETDFTLEISRVEAEDLGVYYCLQGTYYPHTFGSGTKLEIK | binds
802.2F11.2B6 (antibody, V domains shown, Mouse hybridoma monoclonal) VH: QVQLQQSGAELMKPGASVKLSCKATGYTFTGYWIEWVKQRPGHGLEWIGEILPGSGSTHYNEKFKGKATFTADTSSNTAYIQLSSLTTEDSAIYYCEREVYDNDEGAWFANWGQGTLVTVSA VL: DVVMTQTPLSLSVTIGQPASISCKSSQSLLYSDGKTYLNWLQQRPGQSPKRLMYQVSKLDPGIPDRFSGSGSETDFTLKISRVEAEDLGVYYCLQGTYYPHTFGSGTKLEIK | binds
802.2F4.2C7 (antibody, V domains shown, Mouse hybridoma monoclonal) VH: EVQLQQSGTVLARPGASVKMSCKASGYNFINSWMHWVKQRPGQGLEWIGAFYPGNSDTRYNQKFMGKAKLTAVTSASTAYMEVSSLTNEDSAVYYCTELGGDYWGQGTTLTVSS VL: DVVMTQTPLSLPVSLGDQASISCRSSQSLVHNDGNTYLHWFLQKPGQSPKLLIHKVSNRFSGVPDRFSGSGSGTDFTLKISRVEAEDLGVYFCSQSTHVPYTFGGGTKLEIK | binds
802.3E6.2F9 (antibody, V domains shown, Mouse hybridoma monoclonal) VH: QVQLQQSGAELMKPGASVKISCKVTGHTFSSYWIEWVKQRPGHGLEWIGEILPGKGNTEYNEKFKGKATFTADTSSNTAYMQLSSLTSEDSAVYYCARNFDVWGAGTTVTVSS VL: DVVMTQTPLSLPVSLGDQASISCRSSQSLVHRNGHTYLHWYLQKPGQSPKLLIYKVSNRFSGVPDRFSGSVSGTDFTLKISRVEGEDVGVYFCSQSTHVPYTFGGGTKLEIK | binds
802.1H3.2A4 (antibody, V domains shown, Mouse hybridoma monoclonal) VH: QVQLQQPGDELVKPGASVKLSCKASGYTFTSFWIHWVKQRPGQGLEWIGNIYPGSSSANYNEKFKSKATLTVDTSSSTAYMQLSSLTSDDSAVYYCARSSYRYSYYSWGQGTTLTVSS VL: DVVMTQTPLSLPVSLGDQASISCRSSQSIVHSNGNTFLEWYLQKPGQSPNLLIYKVSNRFSGVPDRFSGSGSGTDFTLKISRVEAEDLGVYYCFQGSHVPLSFGAGTKLELK | binds
802.4H12.2A9 (antibody, V domains shown, Mouse hybridoma monoclonal) VH: EVQLVESGGGLVKPGGSLKLSCAASGFTFSSYTMSWVRQTPEKTLEWVATISDGGRYTYYPDNVKGRFTISRDNANNNLYLQMSHLKSEDTAMYYCARGWLLRNFDFWGQGTTLTVSS VL: DVVMTQTPLSLPVSLGDQASISCRSSQSIVHSNGNTYLEWYLQKPGQSPKLLIYKVSNRFSGVPDRFSGSGSGTDFTLKISRVEAEDLGVYYCFQGSHVPLTFGAGTKLELK | binds
802.4B6.2E11 (antibody, V domains shown, Mouse hybridoma monoclonal) VH: QVQLQQPDTELVKPGASVKLSCRASGYTFTSYWINWVKQRPGQGLEWIGNIYPGTSSTNYNEKFKSKATLTVDPSSSTAYMQLSSLTSDDSAVYYCSRSSYRYTYYSWGQGTTLTVSS VL: DVVMTQTPLSLPVSLGDQASISCRSSQSIVQSNGITYLEWYLKKPGQSPNLLIYKVSNRLSGVPDRFSGSGSGTDFTLKISRVEADDLGVYYCFQGSHVPLTFGAGTKLELK | binds

Continued, values first:

binding result | Binder
binds | 802.3D5.2G4 (antibody, V domains shown, Mouse hybridoma monoclonal) VH: EVKLEESGGGLVQPGGSMTLSCVASGFTFSNYWVNWVRQSPEKGLEWVAQIRLKSENYPTHYAESVKGRFTVSRDDSKSSVYLQMNNLRAEDTGIYYCTGRGYSNYAWGQGTTLTVSS VL: DIVMTQTPLSLPVSLGDQASISCRSSQSIVHSNGNTYLEWYLQKPGQSPKLLIYKVSNRFSGVPDRFSGSGSGTDFTLKISRVEAEDLGVYYCFQGSHFPWTFGGGTKLEIK
binds | 802.2B7.2D9 (antibody, V domains shown, Mouse hybridoma monoclonal) VH: QVQLKQSGPGLVQPSQSLSITCTVSGFSLTSYGVHWVRQSPGKGLEYLGVIWSGGSTDYNAAFISRLSISKDNSKSQVFFKMNSLRADDTAIYYCARNWAYYSNHYYVMDYWGQGTSVTVSS VL: DIQMTQSPASLYAFVGETVTITCRASENIYSYLAWYHQKQGKSPQLLVYNSNSLAEGVPLRFSGSGSGTQFSLKINSLQPEDFGNYYCQHHYVTPLTFGGGTKLEMK
binds | 802.4B6.2F6 (antibody, V domains shown, Mouse hybridoma monoclonal) VH: QVQLQQSGPELVKPGASVKLSCKASGYTFTSYDINWVKQRPGQGLEWIGWIYPRDGTTKYNEKFKGKATLTVDTSSSTAYMEIHSLTSEDSAVYFCAREDYGSSFHNWGQGTTLTVSS VL: NIVMTQSPKSMSMSVGERVTLSCKASEDVDTYVSWYQQKPNQSPKLLIYGASNRYTGVPDRFTGSGSATDFTLTISSVQAEDLADYYCGQSYSYPWTFGGGTKLEIK
binds | 802.3B10.2C10 (antibody, V domains shown, Mouse hybridoma monoclonal) VH: DVQLQESGPGLVKPSLSLSLTCTVTGYSITSGYDWHWIRHFPGNILEWMGYISYSGYTNYNPSLKSRISITHDTSKNHFFLKLNSVTTEDTATYYCARDSNWYFDVWGAGTTVTVSS VL: NIVMTQSPKSMSMLVGERVILNCKASENVDTYVSWYQQKPEQSPKLLIYGASNRYTGVPDRFTGSGSATDFTLTISSVQGEDLADYYCGQSHNYPYTFGSGTKLEIK
binds | 802.3E6.2H9 (antibody, V domains shown, Mouse hybridoma monoclonal) VH: QVQKQQPGAELVMPGASVKLSCKASGYTFTSYWMHWVMQRPGQGLEWIGDIDPSDSYTNYNQQFKGKATLTVDISSSSAYMQLSSLTFEDSAVYYCARARVDFDYWGRGTTLTVSS VL: EIVLTQSPALLAASPGDKVTITCSVSSSISSSTLHWYQQKSGTSPKPWIYGTSNLASGVPVRFSGSGSGTSYSLTISSMEAEDAATYYCQQWSGYPLTFGAGTKLELK
